Results from patent US20050064507A1, “Determining kinase specificity” (priority 2003, published 2005).

Key:
PKC-zeta = biological target: T1, PKC-zeta (Homo sapiens, UniProt Q05513); assay: In vitro kinase assay: peptide phosphorylation by PKC-zeta; format: biochemical; conditions: for PKC-zeta phosphorylation: normalized to best substrate
T1 construct: purchased Calbiochem
T1 sequence (Q05513 1-592): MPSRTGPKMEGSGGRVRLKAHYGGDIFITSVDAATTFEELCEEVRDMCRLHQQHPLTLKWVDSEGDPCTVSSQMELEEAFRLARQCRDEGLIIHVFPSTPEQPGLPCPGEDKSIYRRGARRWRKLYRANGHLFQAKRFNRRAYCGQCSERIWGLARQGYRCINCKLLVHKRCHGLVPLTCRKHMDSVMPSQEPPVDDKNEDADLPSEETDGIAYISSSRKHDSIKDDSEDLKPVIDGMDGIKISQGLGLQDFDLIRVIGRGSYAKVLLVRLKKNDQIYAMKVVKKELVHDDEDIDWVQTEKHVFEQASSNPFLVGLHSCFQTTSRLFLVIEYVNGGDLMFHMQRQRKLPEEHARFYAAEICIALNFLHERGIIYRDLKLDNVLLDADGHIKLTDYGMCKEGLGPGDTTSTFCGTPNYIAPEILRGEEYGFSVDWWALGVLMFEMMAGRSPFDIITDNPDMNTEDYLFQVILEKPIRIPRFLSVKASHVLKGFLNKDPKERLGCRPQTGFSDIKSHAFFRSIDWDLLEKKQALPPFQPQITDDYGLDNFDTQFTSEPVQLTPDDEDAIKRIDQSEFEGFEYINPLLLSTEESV
Experimental: Catalytically active preparations of the kinases of interest were either purchased or prepared. Purchased and tested active kinase preparations including the following: PKC-alpha, PKC-delta, PKC-epsilon, PKC-zeta, PKC-mu, PKA, PKG from Calbiochem, ROK alpha/ROCK-II, active from Upstate Biotechnology, and AKT1 from Panvera.
(§1) The conditions of the kinase assay and the amount of active kinase used varied with the kinase and with the accuracy needed. For a typical experiment, 5-20 ng of kinase was used per well and each peptide pool was assayed in duplicate wells. Note that the absolute amount of kinase used was not usually a critical parameter, because the desired information related to specificity of the kinase not its absolute activity, and robustness of the assay depends on comparisons of the same amount of kinase on different peptides. The combination of kinase concentration and assay duration was modified to assure that the stoichiometry of peptide phosphorylation never exceeded 5%. The choice of kinase buffer depended on the kinase being analyzed. For studies of PKC, 100 mM HEPES, 0.05% Triton-X100, 1 mM CaCl2, 20 mM MgCl2, 0.2 mg/ml phosphatidyl serine (Avanti Polar Lipids), PMA 100 ng/ml was typically used. The lipid stock was prepared by transferring 3 mg phosphatidyl serine into iced mixture of 450 μl water plus 50 μl of 10% Triton-X100, sonicating 10 times on ice for 1 sec each.
(§2) The kinase reaction mixture was assembled by sequential addition to a tube held on ice of: 5 μl peptide (100 μM for final concentration of 10 μM), 15 μl of kinase (typically 5 ng/well, in appropriate kinase buffer), 30 μl of ATP (1 uCi/well of ^32P-gamma ATP in a stock of 167 μM cold ATP in the kinase buffer; for final concentration for 100 μM ATP). The mixture was rapidly warmed to desired reaction temperature (30° C. for PKC) and incubated for the desired duration (usually 10 minutes). The kinase assay was terminated by transfer to 4° C. water batch, and rapid addition of an equal volume (50 μl) of stop solution [0.1M ATP+0.1M EDTA in water, pH 8].
(§3) The peptides were then captured from the reaction mixture by transfer to a Reacti-Bind Streptavidin High Binding Capacity Coated Plates (HBC) (Pierce Biotechnology) as follows. The HBC plates were pre-rinsed three times with PBS/Tween PBS/Tween20 0.05% (PBS/Tween). Part of all of the reaction mixture was then transferred wells of a HBC plate pre-filled with 90 μl of phosphate-buffered saline (PBS); typically each aliquots of each phosphorylation reaction were transferred to duplicate HBC plates to assure accuracy by additional replication
For kinase assays done at the standard peptide concentration of 10 μM, the peptide concentration in the reaction mixture becomes 5 μM after addition of the stop solution; consequently 10 μl of the reaction (50 pMoles of peptide) was transferred to the HBC plate. More generally, the amount of reaction mixture transferred was estimated to be about 50 pMoles of peptide. […] The HBC plates were incubated for 0.5 to 1.5 hr at room temperature for complete binding of biotinylated peptides to plate-bound streptavidin. The HBC plates were then washed extensively with PBS/Tween. Five washes were done routinely and additional wash steps were added if the wash solution removed from the plate had measurable radioactivity as detected using a Geiger counter. This step is essential to obtaining a good the signal to noise ratio because the fraction of radioactivity incorporated in the peptides was a tiny fraction of the total in the reaction mixture. The wells were air-dried. A volume of 40-50 μl of microScint-20 (Packard Instruments) was added to each well. The plates were covered with stick-on film sheet. Radioactive emissions were measured in a TopCount NXT Microplate Scintillation and Luminescence Counter (Packard Instruments). Typically samples were counted for 5 minutes (or more) to improve the signal to noise ratio when counts were low. […]

PKC = assay: In vitro phosphorylation by PKC (average of isoforms alpha, epsilon, delta, theta); format: biochemical; conditions: for PKC average: average of PKC-alpha, -epsilon, -theta, normalized to best substrate; for average (phosphorylation by PKC-theta, -delta, -epsilon, -alpha): average over PKC-theta, -epsilon and -alpha at 10 and 1 uM peptide, relative to best substrate
Experimental: as §1, §2, §3
For kinase assays done at the standard peptide concentration of 10 μM, the peptide concentration in the reaction mixture becomes 5 μM after addition of the stop solution; consequently 10 μl of the reaction (50 pMoles of peptide) was transferred to the HBC plate. More generally, the amount of reaction mixture transferred was estimated to be about 50 pMoles of peptide. […] The HBC plates were incubated for 0.5 to 1.5 hr at room temperature for complete binding of biotinylated peptides to plate-bound streptavidin. The HBC plates were then washed extensively with PBS/Tween. Five washes were done routinely and additional wash steps were added if the wash solution removed from the plate had measurable radioactivity as detected using a Geiger counter. This step is essential to obtaining a good the signal to noise ratio because the fraction of radioactivity incorporated in the peptides was a tiny fraction of the total in the reaction mixture. The wells were air-dried. A volume of 40-50 μl of microScint-20 (Packard Instruments) was added to each well. The plates were covered with stick-on film sheet. Radioactive emissions were measured in a TopCount NXT Microplate Scintillation and Luminescence Counter (Packard Instruments). Typically samples were counted for 5 minutes (or more) to improve the signal to noise ratio when counts were low.
Many peptides that are good substrates for PKC enzymes were identified using the methods of the invention. For example, Tables 4 and 5 provide a listing of peptides identified as potentially useful kinase substrates. […]

Row | Substance | PKC-zeta phosphorylation (PKC-zeta) [%] | PKC average (PKC) [%] | phosphorylation by PKC zeta (PKC-zeta; peptide concentration 1 uM) | phosphorylation by PKC zeta (PKC-zeta; peptide concentration 10 uM) | average (phosphorylation by PKC-theta, -delta, -epsilon, -alpha) (PKC)
1 | 82 (PRLIRRGSKKRPAR) [compound 82] | 38 | 56 |  |  | 
2 | 109 (KEVVRTDSLKGRRGR) [compound 109] | 2 | 16 |  |  | 
3 | 163 (PPRTPGWHQLQPRRVSFRGE) [compound 163] |  |  | 7 | 26 | 16
4 | 89 (EYLERRASRRRAV) [compound 89] | 14 | 41 |  |  | 
5 | 103 (LLKKRDSFRTPRDSKLE) [compound 103] | 8 | 22 |  |  | 
6 | 90 (AQIVKRASLKRGKQ) [compound 90] | 5 | 40 |  |  | 
7 | 139 (RPTPGDGEKRSRIKKSKKRK) [compound 139] |  |  | 1 | 1 | 30
8 | 162 (KKKFSFKKPFKLSGLSFKRN) [compound 162] |  |  | 7 | 4 | 17
9 | 112 (KRPGKKGSNKRPGKR) [compound 112] | 1 | 12 |  |  | 
10 | 158 (VQMTWSYPDEKNKRASVRRR) [compound 158] |  |  | 11 | 72 | 19
11 | 96 (RGFLRSASLGRRASFHLE) [compound 96] | 22 | 33 |  |  | 
12 | 135 (KKKFRTPSFLKKSKK) [compound 135] |  |  | 11 | 13 | 33
13 | 164 (TEGKMARVAWKGKRRSKARK) [compound 164] |  |  | 3 | 2 | 16
14 | 138 (EYLERRASRRRAV) [compound 138] |  |  | 31 | 61 | 31
15 | 115 (NRKKKRTSFKRKA) [compound 115] |  |  | 11 | 10 | 80
16 | 95 (KKKFRTPSFLKKSKK) [compound 95] | 5 | 33 |  |  | 
17 | 136 (RARRDSLKKIEIW) [compound 136] |  |  | 6 | 9 | 32
18 | 141 (VTDSQKRREILSRRPSYRKI) [compound 141] |  |  | 26 | 78 | 29

Row | Substance | PKC-zeta phosphorylation (PKC-zeta) [%] | PKC average (PKC) [%] | phosphorylation by PKC zeta (PKC-zeta; peptide concentration 1 uM) | phosphorylation by PKC zeta (PKC-zeta; peptide concentration 10 uM) | average (phosphorylation by PKC-theta, -delta, -epsilon, -alpha) (PKC)
19 | 161 (KYKAFIRIPIPTRRHTFRRQ) [compound 161] |  |  | 15 | 9 | 18
20 | 102 (AGSFKRNSIKKIV) [compound 102] | 2 | 23 |  |  | 
21 | 99 (AGWRKKTSFRKPKED) [compound 99] | 10 | 27 |  |  | 
22 | 160 (PFEVVWYKDKRQLRSSKKYK) [compound 160] |  |  | 15 | 57 | 18
23 | 80 (KKKKKRFSFKKSFKL) [compound 80] | 16 | 56 |  |  | 
24 | 124 (PRLIRRGSKKRPAR) [compound 124] |  |  | 45 | 32 | 49
25 | 130 (EYLERRASRRRAV) [compound 130] |  |  | 36 | 39 | 39
26 | 126 (KAIKAIEGGQKFARKSTRRS) [compound 126] |  |  | 46 | 56 | 46
27 | 106 (EILSRRPSYRKILND) [compound 106] | 15 | 21 |  |  | 
28 | 118 (RPQNTLKASKKKKRASFKRK) [compound 118] |  |  | 46 | 57 | 64
29 | 145 (ISDFGLAKKLAVGRHSFSRR) [compound 145] |  |  | 25 | 61 | 27
30 | 146 (QAQRQIKRGAPPRRSSIRNA) [compound 146] |  |  | 32 | 56 | 27
31 | 147 (RDIRQSPKRGFLRSASLGRR) [compound 147] |  |  | 28 | 34 | 26
32 | 116 (EEGTFRSSIRRLSTRRR) [compound 116] |  |  | 100 | 100 | 71
33 | 155 (RWDKRRWRKIPKRPGSVHRT) [compound 155] |  |  | 19 | 6 | 21
34 | 165 (TEEKSKKRKKKHRKNSRKHK) [compound 165] |  |  | 1 | 2 | 16
35 | 159 (LYARLARAYRRSQRASFKRA) [compound 159] |  |  | 25 | 41 | 19
36 | 128 (QQVDRERPHVRRRRGTFKRS) [compound 128] |  |  | 14 | 9 | 42
